According to patent publication US20170189529A1 (CONTRAFECT, published 2017):
Like-named read-outs stand apart in the source and are kept apart here.

What was measured:
[1] = target: recombinant HA of influenza B virus B/Wisconsin/10 (Yamagata clade) (influenza B virus B/Wisconsin/10 …); test: recombinant HA ELISA (AttoPhos fluorescence, mean of triplicates)
[2] = target: T1, hemagglutinin (HA) of influenza B virus B/Florida (Yamagata lineage) (influenza B virus B/Florida/06 …); test: as above
[3] = target: recombinant HA of influenza B virus B/Brisbane/08 (Victoria clade) (influenza B virus B/Brisbane/08 …); test: as above
[4] = target: T2, hemagglutinin (HA) of influenza B virus B/Malaysia (Victoria lineage) (influenza B virus B/Malaysia/04 …); test: as above
[5] = target: recombinant HA of influenza B virus B/Mass/12 (Yamagata clade) (influenza B virus B/Mass/12 (Yamagata …)); test: as above
[6] = target: T1, hemagglutinin (HA) of influenza B virus …
[7] = target: T2, hemagglutinin (HA) of influenza B virus …
[8] = target: T3, H3 Hong Kong/8/68 HA trimer (influenza A virus H3 Hong Kong/8/68); test: kinetic binding to HA trimer (instrument not stated)
T3 construct: Trimeric HA

[9] = target: hemagglutinin of influenza A virus A/Canada/rv444/04 (H7), on virus (influenza A virus H7 A/Canada/rv444/04); test: cell-based or functional assay
[10] = target: hemagglutinin of influenza A virus A/Wisconsin/67/2005, on virus (influenza A virus A/Wisconsin/67/2005); test: cell-based or functional assay
[11] = target: hemagglutinin of influenza A virus A/Netherlands/219/03, on virus (influenza A virus A/Netherlands/219/03); test: cell-based or functional assay
[12] = target: hemagglutinin of influenza A virus A/Perth/16/2009 (H3), on virus (influenza A virus H3 A/Perth/16/2009); test: cell-based or functional assay
[13] = target: hemagglutinin of influenza A virus A/Philippines/2/82 x-79, on virus (influenza A virus A/Philippines/2/82 …); test: cell-based or functional assay
[14] = target: hemagglutinin of influenza A virus A/New York/55/2004, on virus (influenza A virus A/New York/55/2004); test: cell-based or functional assay
[15] = target: hemagglutinin of influenza A virus A/Udorn/307/1976, on virus (influenza A virus A/Udorn/307/1976); test: cell-based or functional assay
[16] = target: hemagglutinin of influenza A virus A/SW/MN/02719, on virus (influenza A virus A/SW/MN/02719); test: cell-based or functional assay
[17] = target: hemagglutinin of influenza A virus A/HongKong/68, on virus (influenza A virus A/HongKong/68); test: cell-based or functional assay
[18] = target: hemagglutinin of influenza A virus A/Bufflehead (H4), on virus (influenza A virus H4 A/Bufflehead); test: cell-based or functional assay
[19] = target: hemagglutinin of influenza A virus A/Northern Shoveler (H10), on virus (influenza A virus H10 A/Northern …); test: cell-based or functional assay
[20] = target: T2, hemagglutinin (HA) of influenza B virus …; test: affinity determination (method not stated there; data not shown)

Binder | fold reactivity over background [1] [fold over background] | fold reactivity over background [2] [fold over background] | fold reactivity over background [3] [fold over background] | fold reactivity over background [4] [fold over background] | fold reactivity over background [5] [fold over background] | Kd [6] [nM] | other results
TRL846 (antibody, V domains shown) VH: QVQLVESGGGLVQPGGSLRLSCTVSGFTFNSYAMNWVRQAPGKGLEWVSGIRGSGENTYYAETVKGRFTISRDNSKNTLYLEMNSLRAEDTAVYYCARKWGRMTVFGVATDQLYYFDYWGQGTLVTVSS VL: DITLTQSPATLSVSPGERATLSCRASQSVSSNLAWYQQKPGQAPRLLIYGASNRATDIPARFSGSGSGTEFTLTISSLQSEDFAVYYCQQFNDWPFLTFGGGTKVEIKR | 25.6 | 25.6 | 25.6 | 25.6 | 25.6 | 0.85 | Kd [7]: < 1 nM
TRL579 (antibody, V domains shown) VH: QVQLVQSGAEVKKPGASVKVSCKTSGYTFTAYTIHWVRQAPGQRLEWMGWINAGNGHTKYSQRFKGRVTITRDTSARTTYMELRSLTSEDTALYFCARGPETYYYDKTNWLNSHPDEYFQHWGHGTQVTVSS VL: DIQMTQSPSTLSASVGDRVTITCRASQTINNYLAWYQQKPGKAPKLLIYKASSLESGVPSRFSGSGSGTEFTLTISSLQPDDFATYYCQEYNNDSPLTFGGGTKVEIKR | 1 | 1 | 1 | 1.1 | 3.2 | – | Kd [8]: 0.2 nM; koff [8]: 5.8e-05 s⁻¹; kon [8]: 250000 M⁻¹ s⁻¹; IC50 (ug/ml), MDCK monolayer microneutralization assay [9]: 1.6 µg/mL; IC50 (ug/ml), MDCK monolayer microneutralization assay [10]: 1 µg/mL; IC50 (ug/ml), MDCK monolayer microneutralization assay [11]: 0.6 µg/mL; IC50 (ug/ml), MDCK monolayer microneutralization assay [12]: 0.2 µg/mL; IC50 (ug/ml), MDCK monolayer microneutralization assay [13]: 0.9 µg/mL; IC50 (ug/ml), MDCK monolayer microneutralization assay [14]: 1.1 µg/mL; IC50 (ug/ml), MDCK monolayer microneutralization assay [15]: 1.9 µg/mL; IC50 (ug/ml), MDCK monolayer microneutralization assay [16]: 3.9 µg/mL; IC50 (ug/ml), MDCK monolayer microneutralization assay [17]: 2.8 µg/mL; IC50 (ug/ml), MDCK monolayer microneutralization assay [18]: 15.5 µg/mL; IC50 (ug/ml), MDCK monolayer microneutralization assay [19]: 0.8 µg/mL
TRL854 (antibody, V domains shown) VH: QVQLVESGAEVKKPGASVRVSCKGSGYTFTAYHMHWVRQAPGQGFEWVGWINPNSGATYYTSTFEGRVTMTRDTSITTAYMELSSLRSDDTAVYYCATDIVVERDASLGGFNSYGMDVWGQGTTVTVSS VL: DIEMTQSPLSLPVTPGEPASISCRSSQSLLHSNGYNHLAWYLQKPGRSPHLLIYLASTRASGVPDRFSGSGSGTDFTLKISRVEAEDVGIYYCMQSLQTSITFGQGTRLEIKR | 25.6 | 25.6 | 25.6 | 25.6 | 25.6 | 8.8 | Kd [20]: < 1 nM
